# Values joined by “and” are separate entries in the source; they are usually repeats but may differ in a detail not shown here. Equal values may be shown once.
# T1: GCase (Homo sapiens, UniProt P04062)
# T1 construct: purchased Shire Human Genetic Therapies, Inc. Vpriv
# T1 sequence (P04062 40-536): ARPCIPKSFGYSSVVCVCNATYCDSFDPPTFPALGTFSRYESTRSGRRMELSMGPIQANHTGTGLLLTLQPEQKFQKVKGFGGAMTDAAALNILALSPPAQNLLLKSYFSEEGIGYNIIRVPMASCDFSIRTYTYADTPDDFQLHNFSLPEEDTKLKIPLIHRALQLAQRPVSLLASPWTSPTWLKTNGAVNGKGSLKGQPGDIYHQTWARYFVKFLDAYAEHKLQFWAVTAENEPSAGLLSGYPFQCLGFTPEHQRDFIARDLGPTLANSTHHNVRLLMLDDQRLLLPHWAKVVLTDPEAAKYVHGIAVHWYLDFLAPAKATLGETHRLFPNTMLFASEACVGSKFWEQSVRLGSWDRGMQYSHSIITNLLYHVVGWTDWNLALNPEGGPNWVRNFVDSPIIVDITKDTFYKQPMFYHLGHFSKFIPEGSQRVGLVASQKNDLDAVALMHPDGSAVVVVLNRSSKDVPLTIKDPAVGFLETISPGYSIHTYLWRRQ
# T2: recombinant wild type GCase (Homo sapiens, UniProt P04062)
# T2 construct: purchased Shire Human Genetic Therapies, Inc. Vpriv
# T2 sequence (P04062 40-536): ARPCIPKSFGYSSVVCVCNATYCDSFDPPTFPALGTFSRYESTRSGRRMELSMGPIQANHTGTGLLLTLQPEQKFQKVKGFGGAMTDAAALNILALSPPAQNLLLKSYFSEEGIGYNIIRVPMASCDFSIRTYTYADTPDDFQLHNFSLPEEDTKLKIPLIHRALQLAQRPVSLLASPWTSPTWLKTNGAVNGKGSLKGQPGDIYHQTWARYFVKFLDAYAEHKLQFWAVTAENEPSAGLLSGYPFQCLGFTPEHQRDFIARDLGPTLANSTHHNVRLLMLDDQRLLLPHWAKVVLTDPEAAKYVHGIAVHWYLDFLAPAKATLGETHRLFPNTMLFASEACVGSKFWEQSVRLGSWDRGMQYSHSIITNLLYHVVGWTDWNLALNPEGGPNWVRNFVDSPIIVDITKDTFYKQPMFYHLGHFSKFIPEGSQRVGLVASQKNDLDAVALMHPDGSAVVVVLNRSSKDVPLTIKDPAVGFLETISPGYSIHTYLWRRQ
# Key:
# GCase = biological target: T1, GCase; assay: Fluorescence polarization (FP) assay, probe titrated with enzyme; format: binding; conditions: probe 50 nM, enzyme 5 nM to 10 μM
# Procedure: The fluorescent probe 3 (25 nL/well, 50 nM final concentration) was transferred to a 384-well black plate using a Labcyte Echo 550 Liquid Handler system. The 25 μL/well enzyme dilutions with GCase enzyme activity buffer were added to the plate, which was shaken at room temperature in dark for 20 min. The final titration was 5 nM to 10 μM, 10 concentrations, 2 times dilution. The fluorescence polarization was measured in Molecular Devices Analyst GT with Ex=535 nm and Em=580 nm, G Factor=1.05.
# The fluorescent probe 3 (25 nL/well, 50 nM final concentration) was transferred to a 384-wells black plate by using Labcyte Echo 550 Liquid Handler system. The 25 μL/well enzyme dilutions in GCase enzyme activity buffer (the final titration was 5 nM to 10 μM, 10 concentrations, 2 times dilution) were added to the plate, and shook at room temperature in dark for 20 min. The fluorescence polarization was measured in Molecular Devices Analyst GT with Ex=535 nm and Em=580 nm, G Factor=1.05.
# [1] = Enzyme stability assay in pH 4.7 buffer; format: physicochemical; conditions: citrate/phosphate buffer pH 4.7, day 10
# Excerpt: To test whether probe 4 changed the enzyme stability of GCase, we used two environments for GCase activity stability assay (Tekoah, Tzaban et al. 2013). The first one was citrate/phosphorylate buffer, which was at pH 4.7. In this condition, the wt. GCase only had about 15% activity left on day 4 (FIGS. 6A and 6B), which is similar to the previous research (Tekoah, Tzaban et al. 2013). An interesting finding was that even on day 10, activated GCase still had more than 20% activity left. […] One possible reason for the higher enzyme activity in low pH buffer was that activated GCase was stabilized by the covalent compound, and was more difficult to unfold.
# [2] = biological target: T2, recombinant wild type GCase; assay: Covalent binding assay: activity of GCase activated by probe 4; format: biochemical; conditions: natural substrate assay; covalent activation
# Procedure: To the recombinant wild type enzyme (22 μM, 95 μL, 1 equiv) in 0.1 M phosphate buffer (pH 7.2) was added 2,5-dioxopyrrolidin-1-yl 3-(2-(2-(4-(4-(2,4-dimethylpyrrolo[1,2-a]pyrimidine-8-carboxamido)phenyl)-1H-1,2,3-triazol-1-yl)ethoxy)ethoxy)propanoate (4) in DMSO (0.89 mM, 5 μL, 2 equiv) in one portion, and was vortexed for 5 sec immediately. At indicated time points, the reaction solution (2 μL) was sampled and diluted (1:3125 dilution) into the assay buffer (50 mM citric acid, 176 mM K2HPO4, and 0.01% Tween-20 at pH 5.9). After 2 h the reaction solution was dialyzed three times with 0.1 M phosphate buffer (pH 7.2). The enzyme was adjusted to the same concentration and sampled for activity. The dilution solutions were assayed with three substrates, resorufin substrate, 4-MU substrate, and natural substrate using the method in Example 5 and Example 6 without adding compounds.
# The probe 4 was subjected to the covalent binding assay against GCase. The reaction conditions, including the buffer pH value, the concentration of the protein and probe, and the reaction temperature were carefully adjusted to achieve the maximum activation. With the optimized reaction condition, the enzyme activity was activated in a time-dependent manner (FIG. 5). The enzyme could be activated by probe 4 with around 22 and 28 folds activity comparing to the wt. GCase in the 4MU-Glc substrate (FIG. 5A) and red substrate (FIG. 5B) enzyme activity assay respectively.
# U937 macrophage cells = assay: U937 macrophage uptake assay; format: cell-based, human
# Procedure: Human monocyte cell line U937 was optimally differentiated into macrophages by the addition of 75 ng/ml PMA (Brumshtein, Salinas et al. 2010) to the monocyte culture for 3 days (in 75 cm^2 flasks). Macrophages were enriched by adhesion to the culture plate and identified by morphology and receptor staining.
# The assay was carried out according to the reported method (Tekoah, Tzaban et al. 2013) with slight modification. The enzyme was treated with compound 4 or DMSO at pH 7.2 for 60 min as described above, then dialyzed with PBS. U937 cells, after differentiation (˜1.6*10^6 cells), were incubated with 60 μg/ml of the activated enzymes and wt. enzyme in F12K medium for 10 min at 5% CO2, 37° C. incubator. The cells were then washed twice with ice cold PBS enriched with Mannan (1 mg/ml). To further ensure release of any proteins bound non-specifically to the membrane half of the cells were washed with ice cold glycine buffer: (0.8% NaCl, 0.038% KCl, 0.01% MgCl2, 0.01% CaCl2, 0.7% glycine [pH 3]) followed by two additional cold PBS washes. The other half of the wells were used as controls for measuring total enzymatic activity (bound and internalized enzyme). The cells were lysed by adding β-glucocerebrosidase activity buffer (60 mM phosphate-citrate buffer; 0.15% Triton X-100; 0.125% sodium taurocholate, pH 5.5), followed by pipetting and one freeze/thaw cycle. The obtained lysates were subjected to determination of enzymatic activity using the colorimetric method detailed above. The total enzymatic activity was normalized to total soluble proteins as measured by Bradford assay. The effective uptake was calculated as the percentage of activity within the cells out of the total enzymatic activity of the controls.
Kd (GCase),activity improvement [2],Molecule,activity left [1],"activity compared to endogenous GC (U937 macrophage cells; PMA-induced U937 cells, 4MU-β-glc substrate)","protein uptake level (U937 macrophage cells; Western blot, activated GCase vs wt. GCase, in words)"
710 nM and ~710 nM,–,"Cc1cc(C)n2ccc(C(=O)Nc3ccc(-c4cn(CCOCCOCCNC(=O)c5ccc(-c6c7ccc(=[N+](C)C)cc-7oc7cc(N(C)C)ccc67)c(C(=O)[O-])c5)nn4)cc3)c2n1 [No. 4, 2-(3,6-Bis(dimethylamino)xanthylium-9-yl)-5-((2-(2-(2-(4-(4-(2,4-dimethylpyrrolo[1,2-a]pyrimidine-8-carboxamido)phenyl)-1H-1,2,3-triazol-1-yl)ethoxy)ethoxy)ethyl)carbamoyl)benzoate]",–,–,–
–,16 folds,"activated GCase: recombinant wild type GCase covalent modified by probe 4 (NHS ester) on lysine residues, 1-3 ligands (conjugate, UniProt P04062 40-536, looked up, covalent probe 4 on lysines, recombinant wild type GCase covalent modified by probe 4 (NHS ester) on lysine residues, 1-3 ligands) Lysosomal acid …: ARPCIPKSFGYSSVVCVCNATYCDSFDPPTFPALGTFSRYESTRSGRRMELSMGPIQANHTGTGLLLTLQPEQKFQKVKGFGGAMTDAAALNILALSPPAQNLLLKSYFSEEGIGYNIIRVPMASCDFSIRTYTYADTPDDFQLHNFSLPEEDTKLKIPLIHRALQLAQRPVSLLASPWTSPTWLKTNGAVNGKGSLKGQPGDIYHQTWARYFVKFLDAYAEHKLQFWAVTAENEPSAGLLSGYPFQCLGFTPEHQRDFIARDLGPTLANSTHHNVRLLMLDDQRLLLPHWAKVVLTDPEAAKYVHGIAVHWYLDFLAPAKATLGETHRLFPNTMLFASEACVGSKFWEQSVRLGSWDRGMQYSHSIITNLLYHVVGWTDWNLALNPEGGPNWVRNFVDSPIIVDITKDTFYKQPMFYHLGHFSKFIPEGSQRVGLVASQKNDLDAVALMHPDGSAVVVVLNRSSKDVPLTIKDPAVGFLETISPGYSIHTYLWRRQ",more than 20%,more than 25 folds,equal
